Measurements as given in publication PMC2680354.

Tests used:
[1] = molecular target: rapamycin-mediated complex of FKBP-WASP VCA-His6 and mTOR-WASP VCA-FLAG; assay: pull-down
[2] = molecular target: N-WASPC (autoinhibited C-terminal fragment of N-WASP) (UniProt O08816); assay: ITC
[3] = molecular target: N-WASPC (autoinhibited C-terminal fragment of N-WASP) (UniProt O08816)
[4] = molecular target: glutathione S-transferase (GST)

Sequence of N-WASPC (autoinhibited C-terminal fragment of N-WASP) (O08816 whole entry, the tested form may be a part): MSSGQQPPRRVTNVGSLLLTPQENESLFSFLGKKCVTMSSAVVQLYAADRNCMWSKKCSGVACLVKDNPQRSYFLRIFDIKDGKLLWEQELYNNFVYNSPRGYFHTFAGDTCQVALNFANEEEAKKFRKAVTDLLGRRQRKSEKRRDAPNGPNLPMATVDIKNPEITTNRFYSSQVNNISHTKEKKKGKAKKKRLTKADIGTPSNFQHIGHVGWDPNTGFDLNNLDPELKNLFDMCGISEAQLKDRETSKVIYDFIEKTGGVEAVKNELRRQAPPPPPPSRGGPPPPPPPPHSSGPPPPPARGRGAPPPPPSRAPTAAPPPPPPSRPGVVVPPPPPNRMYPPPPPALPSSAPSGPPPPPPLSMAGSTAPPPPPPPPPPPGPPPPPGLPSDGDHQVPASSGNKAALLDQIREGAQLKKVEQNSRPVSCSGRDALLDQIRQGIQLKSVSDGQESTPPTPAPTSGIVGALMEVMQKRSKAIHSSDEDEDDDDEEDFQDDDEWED
Sequence of EspFu 2RC (identical repeats four and five) (P0DJ88 whole entry, the tested form may be a part): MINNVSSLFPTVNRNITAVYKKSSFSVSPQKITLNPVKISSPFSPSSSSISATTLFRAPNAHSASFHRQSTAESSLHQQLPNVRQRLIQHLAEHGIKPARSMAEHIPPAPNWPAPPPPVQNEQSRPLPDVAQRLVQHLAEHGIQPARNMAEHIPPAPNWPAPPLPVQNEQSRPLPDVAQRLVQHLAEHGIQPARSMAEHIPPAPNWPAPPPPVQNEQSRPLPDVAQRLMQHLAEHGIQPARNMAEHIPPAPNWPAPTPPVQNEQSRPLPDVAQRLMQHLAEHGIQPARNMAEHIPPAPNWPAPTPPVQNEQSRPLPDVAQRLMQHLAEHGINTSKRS
Sequence of EspFu 1R (a single repeat of EspFu, the fourth repeat) (P0DJ88 whole entry, the tested form may be a part): as above
Sequence of glutathione S-transferase (GST) (natural protein) (P08515 2-218): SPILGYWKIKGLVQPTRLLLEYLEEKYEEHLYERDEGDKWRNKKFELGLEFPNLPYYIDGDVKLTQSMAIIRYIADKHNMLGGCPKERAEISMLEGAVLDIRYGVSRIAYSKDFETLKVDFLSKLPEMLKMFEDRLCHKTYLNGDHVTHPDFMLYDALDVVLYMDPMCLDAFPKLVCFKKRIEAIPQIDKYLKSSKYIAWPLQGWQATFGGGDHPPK

“Arp2/3 complex, endogenous in HEK293 cells (from UniProt P61158 1-418)” showed a fold increase in precipitated Arp2/3 with rapamycin over no rapamycin [1] of over 3 fold.

For “EspFu 2RC (identical repeats four and five) (from UniProt P0DJ88 1-337) (domain or fragment)”, the Kd [2] was 39 nM and the fold tighter affinity than 2R [3] was 3 fold.

Work on “EspFu 1R (a single repeat of EspFu, the fourth repeat) (from UniProt P0DJ88 1-337) (domain or fragment)” yielded a Kd [2] of 35 nM.

In the case of “glutathione S-transferase (GST) (natural protein)”, the Kd [4] is reported as under 1 nM.
